Substrate in the data set: CCCCCCCCCCCCCCCC(=O)Oc1ccc([N+](=O)[O-])cc1
Put plainly: p-NPP hydrolysis, Lineweaver-Burk. Conditions: free enzyme; p-NPP 0.05-0.5 mg/mL. In kind it is biochemical, Thermomyces lanuginosus. An excerpt: p-NPP hydrolysis, Lineweaver-Burk on Thermomyces lanuginosus lipase (TLLs)

B1: Thermomyces lanuginosus lipase (TLLs) (Thermomyces lanuginosus) (protein)
chain: EVSQDLFNQFNLFAQYSAAAYCGKNNDAPAGTNITCTGNACPEVEKADATFLYSFEDSGVGDVTGFLALDNTNKLIVLSFRGSRSIENWIGNLNFDLKEINDICSGCRGHDGFTSSWRSVADTLRQKVEDAVREHPDYRVVFTGHSLGGALATVAGADLRGNGYDIDVFSYGAPRVGNRAFAEFLTVQTGGTLYRITHTNDIVPRLPPREFGYSHSSPEYWIKSGTLVPVTRNDIVKIEGIDATGGNNQPNIPDIPAHLWYFGLIGTCL
notes: commercial free lipase from Novozymes
B1: the Km amounted to 1396 µM and the kcat was found to be 22800 s⁻¹.
